Experimental data reported in patent US20230071609A1 (Genentech, published 2023).

Legend:
[1] = biological target: T1, native full length untagged APOL1-G0 (iAPOL1-CHO, construct a) (human, UniProt O14791 28-398); test: immunofluorescence, PFA-fixed permeabilized iAPOL1-CHO cells
T1 construct: Also used as CHO lysate in western blots; also called iAPOL1-G0; WT iAPOL1-G0
T1 sequence: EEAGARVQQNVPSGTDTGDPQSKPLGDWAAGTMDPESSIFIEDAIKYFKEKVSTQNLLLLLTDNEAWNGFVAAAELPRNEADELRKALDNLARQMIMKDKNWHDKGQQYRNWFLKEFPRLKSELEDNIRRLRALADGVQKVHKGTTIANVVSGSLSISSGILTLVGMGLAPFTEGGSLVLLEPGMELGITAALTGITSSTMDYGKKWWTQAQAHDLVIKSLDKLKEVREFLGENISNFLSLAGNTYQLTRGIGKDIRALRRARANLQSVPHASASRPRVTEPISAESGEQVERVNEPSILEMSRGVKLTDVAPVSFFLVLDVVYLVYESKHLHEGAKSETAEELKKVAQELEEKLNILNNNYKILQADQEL
Excerpt: APOL2 is shown stained with 3.6D12 (a mAb to the N-terminal pore-forming domain (PFD)), although similar results were obtained with the other 43 APOL2-cross reactors (all to the PFD, data not shown). […] APOL1 is shown stained with PFD mAb 3.7D6, membrane-addressing domain (MAD) mAb 3.3A8, or SRA-interacting domain (SRA-ID) mAb 3.1C1, each detected with Alexa488 anti-mouse (see Example 1 below for epitope mapping), although similar results were obtained with all the other APOL1-specific antibodies to all three domains (data not shown). The reticular ER pattern persists in digitonin (plasma membrane only)-permeabilized cells for APOL2, but not APOL1, indicating APOL2 is on the cytoplasmic face of the ER, while APOL1 is inside. The nuclear membrane signal for APOL1 with digitonin is also seen without detergent in some cells since PFA semi-permeabilizes the nuclear membrane (data not shown). With digitonin, some of the more sensitive antibodies, including the PFD (3.7D6) and SRA-ID (3.1C1) antibodies shown here (but not MAD antibody 3.3A8), additionally detected APOL1 on the plasma membrane (arrowhead), which is topologically equivalent to the ER lumen.
Cells were plated on LabTekII (Nalge Nunc 154534) slides and fixed at 70-100% confluency. For mAb screening, cells were fixed/permeabilized for 5 min in −20° C. methanol (EMD MX0485-6). […]

[2] = biological target: T2, iAPOL1-G0 in podocytes (EIK variant, doxycycline-inducible, in APOL1 KO podocytes) (human, UniProt O14791 29-398); test: immunoelectron microscopy, iAPOL1-G0 podocytes, 25 µg/ml
T2 construct: Stably re-expressed untagged APOL1 isoform A in APOL1 KO clone 89401-3; also called iAPOL1-G0 podocytes; iAPOL1 podocytes
T2 chain: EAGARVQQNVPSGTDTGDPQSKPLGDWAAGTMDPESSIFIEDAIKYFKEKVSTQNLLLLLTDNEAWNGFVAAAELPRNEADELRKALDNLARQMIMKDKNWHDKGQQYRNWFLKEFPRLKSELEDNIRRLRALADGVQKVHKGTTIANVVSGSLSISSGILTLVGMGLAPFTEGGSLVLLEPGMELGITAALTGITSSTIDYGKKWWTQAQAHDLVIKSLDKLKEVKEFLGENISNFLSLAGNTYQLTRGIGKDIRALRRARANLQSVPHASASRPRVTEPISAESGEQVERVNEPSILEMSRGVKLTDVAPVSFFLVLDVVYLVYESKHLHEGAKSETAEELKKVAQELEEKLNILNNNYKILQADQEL

[3] = biological target: T3, endogenous human APOL1 (wild-type immortalized podocytes; also JHH-1 cells, kidney and liver tissue) (human, UniProt O14791 28-398); test: podocyte flow cytometry
T3 construct: whole, on cells; Cell or tissue and permeabilization are told under assay; also called podocyte APOL1; endogenous APOL1
T3 sequence (looked up): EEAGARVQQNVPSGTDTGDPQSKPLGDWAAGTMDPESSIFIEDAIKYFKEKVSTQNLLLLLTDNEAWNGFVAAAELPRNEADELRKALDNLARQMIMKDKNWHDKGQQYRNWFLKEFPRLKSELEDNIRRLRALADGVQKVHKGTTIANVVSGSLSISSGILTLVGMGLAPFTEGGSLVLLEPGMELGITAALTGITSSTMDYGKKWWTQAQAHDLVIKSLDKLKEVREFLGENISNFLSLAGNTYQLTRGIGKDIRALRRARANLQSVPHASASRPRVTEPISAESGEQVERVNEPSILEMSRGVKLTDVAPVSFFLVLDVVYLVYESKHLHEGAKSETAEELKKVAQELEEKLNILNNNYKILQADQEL
Description: In FIG. 25A, live WT (left) or APOL1 KO (right) podocytes were incubated on ice for 1 h (without fixation or permeabilization) with 2.5 μg/ml 3.6D12 (an APOL2 cross-reactive mAb). “2° Ab” is Alexa488 anti-mouse secondary antibody alone; “—IFNγ” is untreated; “+IFNγ” is IFNγ-treated cells. There is a shift on WT, but not KO cells (which express APOL2 but not APOL1). […] Thus, the shift seen with 3.6D12 in WT cells must represent APOL1, and increases with IFNγ, as expected.
(§1) Cells were harvested with 5 mM EDTA in PBS, washed once with growth media and twice with PBS. Approximately 0.5×10⁶/m1 of cells resuspended in PBS were incubated with anti-APOL1 antibodies for 1 h on ice. Following two PBS washes, 2 μg/ml of Alexa488 anti-mouse or anti-rabbit (Invitrogen A11029 and A21206, respectively) was used for 1 h on ice for detection. Cells were washed twice in PBS and resuspended in PBS with 1 μg/ml propidium iodide. Signals were read in a FACSCalibur3 (Becton Dickinson), with the exception of FIG. 8A and FIG. 14, which used a FACSCelesta, and data was analyzed using FlowJo v8.4.5. Mean fluorescence intensities were plotted in PRISM v7 after subtraction of secondary antibody alone background. For low pH experiments, cells were incubated with the antibodies in the presence of PBS pH 7.0 or PBS pH 5.5 for an hour on ice and detected with secondary antibodies at neutral pH.

[4] = biological target: T4, circulating APOL1 in normal human serum (human, UniProt O14791 28-398); test: cell-based or functional assay
T4 sequence (looked up): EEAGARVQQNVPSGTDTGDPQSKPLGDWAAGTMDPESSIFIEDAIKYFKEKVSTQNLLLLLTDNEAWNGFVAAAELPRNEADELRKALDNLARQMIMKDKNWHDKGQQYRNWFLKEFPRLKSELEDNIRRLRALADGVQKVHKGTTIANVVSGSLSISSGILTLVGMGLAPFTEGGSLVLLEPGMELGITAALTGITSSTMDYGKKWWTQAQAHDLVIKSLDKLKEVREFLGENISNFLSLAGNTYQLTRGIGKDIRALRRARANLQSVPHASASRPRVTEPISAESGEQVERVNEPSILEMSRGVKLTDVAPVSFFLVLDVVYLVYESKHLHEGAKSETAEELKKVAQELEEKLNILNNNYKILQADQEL

[5] = biological target: T2, iAPOL1-G0 in podocytes (EIK variant, …); test: flow cytometry, iAPOL1-G0 podocytes, 1 µg/ml
Description: APOL1 KO (black line) is completely negative, overlapping with Alexa488 anti-mouse secondary alone (grey line) as expected. A representative histogram from 3-4 experiments is shown.
as §1

B1: antibody 3.1C1 (antibody, V domains shown)
VH: QVQLQQSGPELVKPGASVRISCKASGYTFTNYFIHWVKQRPGQGLEWIGWINPGNLNTKYTEEFKGKATLTADKSSSTAYIQLNSLTSEDSAVYFCVNGNPFVYWGQGTLVTVSA
VL: DIVMTQSPSSLTVIAGEKVTLNCKSSQSLLNSGNQKKYLTWLQQKPGQPPKLLIYWTSTRDSGVPDRFTGSGSGTDFTLTISSVQAEDLAVYYCQNDYSYPLTFGAGTKLEIKR
notes: Mouse mAb, cloned as murine IgG2a LALAPG; not written separately; also called SRA-ID mAb 3.1C1
B1: binds [1].

B2: rabbit monoclonal antibody 5.17D12 (antibody, V domains shown)
VH: QSLEESGGDLVKPGASLTLTCTASGFSFSSNYYMCWVRQAPGKGLEWIACVYVGSGGSTYYASWAKGRFTFSKTSSTTWTLQMTSLTAADTATYFCARDLSYAGDLWGPGTLVTVSS
VL: DPVMTQTPASVSEPVGGTVTINCQASESISSYLAWYQQKPGQPPKLLIYGASNLASGVPSRFKGSGSGTEYTLTISDLECDDAATYYCQSAYYSNSGGHAFGGGTEVVVKG
notes: Rabbit mAb (Method #5), recombinant; also called rabmab 5.17D12
B2: binds [2].

B3: antibody 3.6D12 (antibody, V domains shown)
VH: EVMLVESGGGLVRPGGSLKLSCTASGFTFSRCAMSWVRQTPEKRLEWVSAISRDSTYTYYSDSVKGRFTVSRDNAKNTLYLQMSSLRSEDTAMYYCARQIDDYYVDALDYWGQGTSVTVSS
VL: DVQITQSPSYLAASPGETITINCRASKIISKYLAWYQEKPGKTIKLLIYSGFTLQSGIPSRFSGSGSGTDFTLTISSLEPEDFAMYYCQQHNEYPLTFGAGTKLEIKR
notes: Mouse mAb (Method #3), cloned as murine IgG2a LALAPG; Early screens used hybridoma-purified antibody; also called mAb 3.6D12
B3: binds [3].

B4: antibody 3.7D6 (antibody, V domains shown)
VH: QIQLVQSGPDLKKPGETVKISCRTSGYAFTNYGVNWVKQAPGKGLKWMGWINTNTGQTTYAEEFRGRFAISLETSASTAFLTISNLKNEDSATYFCARLIYDGDYISSDFWGQGTTLTVSS
VL: DIQMTQSPDSLSASVGETVTITCGASENIYGALNWYQRKQGKSPQLLIYGATNLADGMSSRFSGSRSGRQYSLKISSLHPDDVATYYCQNALSMPYTFGGGTKLEIKR
notes: Mouse mAb, cloned as murine IgG2a LALAPG; those versions are not written separately; also called PFD antibody 3.7D6
In the case of B4, the “IC50 of blocking of serum APOL1-mediated trypanolysis (Alamar Blue)” value [4] is reported as 0.5 nM and the binding result [5] is reported as “binds”.
